Experimental data from patent US20090123479A1 (published 2009).
Numbering of substitutions follows the chain as printed.

T1: recombinant human IL-23 (human, UniProt Q9NPF7 20-189; P29460 23-328)
T1 construct: also called hIL-23
T1 sequence 1: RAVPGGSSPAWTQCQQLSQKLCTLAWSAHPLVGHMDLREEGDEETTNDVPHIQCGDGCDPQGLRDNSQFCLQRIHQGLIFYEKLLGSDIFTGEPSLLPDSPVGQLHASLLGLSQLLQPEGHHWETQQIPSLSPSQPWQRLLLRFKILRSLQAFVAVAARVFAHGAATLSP
T1 sequence 2: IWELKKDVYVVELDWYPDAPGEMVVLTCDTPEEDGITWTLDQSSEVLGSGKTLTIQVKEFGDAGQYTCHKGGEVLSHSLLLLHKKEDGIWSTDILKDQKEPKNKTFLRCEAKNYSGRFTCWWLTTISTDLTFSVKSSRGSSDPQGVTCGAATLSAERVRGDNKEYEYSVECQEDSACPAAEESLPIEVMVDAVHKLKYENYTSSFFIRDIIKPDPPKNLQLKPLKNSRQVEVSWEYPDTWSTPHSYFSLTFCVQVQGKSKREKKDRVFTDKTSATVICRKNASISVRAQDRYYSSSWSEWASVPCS

B1: A3M4 (antibody, human IgG1, kappa, V domains shown)
VH: QVQLVQSGAEVKKPGSSVKVSCKASGYTFTSYGITWVRQAPGQGLEWMGENYPRSGNTYYNEKFKGRVTITADKSTSTAYMELSSLRSEDTAVYYCARSEFISTVVAPYYYALDYWGQGTLVTVSS
VL: DIVMTQSPDSLAVSLGERATINCKASKKVTIFGSTSALHWYQQKPGQPPKLIYNGAKPESGVPDRFSGSGSGTDFTLTISSLQAEDVAVYYCLQNKEVPYTFGGGTKVEIKR
notes: Full length chains
B2: A12.5M3 (antibody, V domains shown)
VH: B1 VH with T30A, S99V
VL: DIVMTQSPDSLAVSLGERATINCKASKKVTIFGSTSALHWYQQKPGQPPKLIYNGAKLESGVPDRFSGSGSGTDFTLTISSLQAEDVAVYYCLQNKEVPYTFGGGTKVEIK
B3: A5M0 (antibody, human IgG1, kappa, V domains shown)
VH: B1 VH with S99A
VL: B1 VL with T35I, P58L
notes: Full length chains
B4: A12.5M4 (antibody, V domains shown)
VH: B1 VH with T30A, S99V
VL: B2 VL with L58P
B5: A11.5M4 (antibody, V domains shown)
VH: B1 VH with T30A, S99A
VL: B2 VL with L58P
B6: A10M4 (antibody, human IgG1, kappa, V domains shown)
VH: B1 VH with T30A, V93M
VL: B1 VL
notes: Full length chains
B7: A3M6 (antibody, human IgG1, kappa, V domains shown)
VH: B1 VH
VL: B1 VL with T35I, N54Q, P58L
notes: Full length chains
B8: A6M4 (antibody, human IgG1, kappa, V domains shown)
VH: B1 VH with S99V
VL: B1 VL
notes: Full length chains
B9: A5M4 (antibody, human IgG1, kappa, V domains shown)
VH: B1 VH with S99A
VL: B1 VL
notes: Full length chains
B10: A9M4 (antibody, V domains shown)
VH: B1 VH with N51D, S99V
VL: B2 VL with L58P
B11: A12M4 (antibody, V domains shown)
VH: B1 VH with T30A, V93M, S99V
VL: B2 VL with L58P
B12: A11M4 (antibody, V domains shown)
VH: B1 VH with T30A, V93M, S99A
VL: B2 VL with L58P
B13: A11M3 (antibody, V domains shown)
VH: B1 VH with T30A, V93M, S99A
VL: B2 VL
B14: A7M3 (antibody, human IgG1, kappa, V domains shown)
VH: B1 VH with N51D
VL: B1 VL with P58L
notes: Full length chains
B15: A10M3 (antibody, human IgG1, kappa, V domains shown)
VH: B1 VH with T30A, V93M
VL: B1 VL with P58L
notes: Full length chains
B16: A10.5M4 (antibody, V domains shown)
VH: B1 VH with T30A
VL: B2 VL with L58P
B17: A8M4 (antibody, V domains shown)
VH: B1 VH with N51D, S99A
VL: B2 VL with L58P
B18: A12M3 (antibody, V domains shown)
VH: B1 VH with T30A, V93M, S99V
VL: B2 VL
B19: A11.5M3 (antibody, V domains shown)
VH: B1 VH with T30A, S99A
VL: B2 VL
B20: A7M4 (antibody, human IgG1, kappa, V domains shown)
VH: B1 VH with N51D
VL: B1 VL
notes: Full length chains
B21: A6M0 (antibody, human IgG1, kappa, V domains shown)
VH: B1 VH with S99V
VL: B1 VL with T35I, P58L
notes: Full length chains
B22: A10.5M3 (antibody, V domains shown)
VH: B1 VH with T30A
VL: B2 VL
B23: A3M5 (antibody, human IgG1, kappa, V domains shown)
VH: B1 VH
VL: B1 VL with T35I, N54D, P58L
notes: Full length chains

How the values were obtained:
[1] = target: T1, recombinant human IL-23; assay: SPR (Biacore T100), tissue culture supernatant antibody captured on anti-human IgG, IL-23 analyte
Description: Biacore analysis was carried out using a capture surface on a CM5 chip. Anti-human IgG (BR-1008-39) was used as the capturing agent. Anti-human IgG was coupled to a CM5 biosensor chip by primary amine coupling. Humanized antibody was captured on this immobilised surface and defined concentrations of IL-23 were passed over this captured surface. An injection of buffer over the captured antibody surface was used for double-referencing. […] T100 Biacore machine was used to generate the data; all runs were carried out at 25° C. using HBS EP. Data was analysed using the software inherent to the machine and fitted to the 1:1 model of binding. Tables 7 and 8 detail the IL-23 binding analysis carried out on the 8C92H6.HC1LC1 chimera and selected humanized variants in two separate experiments. […] The data shown for the humanized variants is representative of a number of runs. The chimeric mAb (8C9H6.HC1LC1) was only run once in each experiment, so data shown for this mAb is from that one run.

[2] = target: T1, recombinant human IL-23; assay: SPR (Biacore T100), purified antibody captured on anti-human IgG, IL-23 analyte, 1:1 model
Description: Biacore analysis was carried out using a capture surface on a CM5 chip. Anti-human IgG (BR-1008-39) was used as the capturing agent. Anti-human IgG was coupled to a CM5 biosensor chip by primary amine coupling. Humanized antibody was captured on this immobilised surface and defined concentrations of IL-23 were passed over this captured surface. An injection of buffer over the captured antibody surface was used for double-referencing. […] T100 Biacore machine was used to generate the data; all runs were carried out at 25° C. using HBS EP. Data was analysed using the software inherent to the machine and fitted to the 1:1 model of binding. Tables 7 and 8 detail the IL-23 binding analysis carried out on the 8C92H6.HC1LC1 chimera and selected humanized variants in two separate experiments. Data presented in Tables 7 and 8 are from purified antibody samples. The data shown for the humanized variants is representative of a number of runs. The chimeric mAb (8C9H6.HC1LC1) was only run once in each experiment, so data shown for this mAb is from that one run.

[3] = target: T1, recombinant human IL-23; assay: IL-23/IL-23R inhibition ELISA (optimised protocol, OD450): plate coated with human IL23R Fc chimera, antibody pre-incubated with constant human IL-23, bound IL-23 detected with biotinylated anti-human IL-12; purified antibody
Description: Optimised protocol: Plates were coated with human IL23R Fc chimera at […] (phosphate buffered saline). 50 μl/well of this mixture was incubated overnight at 4° C. The plates were then washed three times with Phosphate Buffered Saline with 0.05% Tween 20 (PBST). Plates were blocked with 4% skim milk powder (Fluka BioChemika #70166) PBST 100 μl/well for a minimum of 1 hour at room temperature. The plates were then washed three times with Phosphate Buffered Saline+0.05% Tween 20 (PBST). Various concentrations of antibody were incubated in a separate plate with a constant concentration of IL-23 for 1 hour at room temperature. 50 ul of each mixture were transferred to the assay plate and incubated at RT for 1 hr. They were then washed three times with Phosphate Buffered Saline+0.05% Tween 20 (PBST). Bound IL23 was detected by anti human 1L12 Biotin labelled Ab (R&D systems BAF219) diluted to 100 ng/ml in 4% skim milk powder (Fluka BioChemika #70166) PBST. 50 μl/well of the biotinylated antibody was added and incubated at RT for 1 hour. The plates were then washed three times with Phosphate Buffered Saline+0.05% Tween 20 (PBST). SA HRP (GE healthcare RPN4401) was diluted 1/4000 in 4% skim m ilk powder (Fluka BioChemika #70166) PBS, 50 μl/well was added to the plates. The plates were then washed three times with Phosphate Buffered Saline+0.05% Tween 20 (PBST). 50 ul/well of TMB was added to the plates and incubated at RT for 15 min. 25 μl/well of 3 MH₂SO₄ was added to the wells already containing TMB. The plate was read at OD450 nm using the SOftmaxPRO versamax plate reader.

Binder | Kd [1] | koff [1] | kon [1] | Kd [2] | koff [2] | kon [2] | IC50 (read off the curve) [3]
B1 | 0.0775 nM | 0.000106 s⁻¹ | 1.36e+06 M⁻¹ s⁻¹ |  |  |  | 
B2 | 0.0637 nM | 0.000172 s⁻¹ | 2.7e+06 M⁻¹ s⁻¹ |  |  |  | 
B3 |  |  |  | 0.103 nM | 0.000171 s⁻¹ | 1.65e+06 M⁻¹ s⁻¹ | ~0.2 nM
B4 | 0.0483 nM | 0.000151 s⁻¹ | 3.12e+06 M⁻¹ s⁻¹ |  |  |  | 
B5 | 0.0665 nM | 9.62e-05 s⁻¹ | 1.45e+06 M⁻¹ s⁻¹ |  |  |  | 
B6 | 0.0733 nM | 0.000107 s⁻¹ | 1.46e+06 M⁻¹ s⁻¹ |  |  |  | 
B7 | 1.23 nM | 0.0011 s⁻¹ | 896000 M⁻¹ s⁻¹ |  |  |  | 
B8 | 0.0465 nM | 0.000149 s⁻¹ | 3.22e+06 M⁻¹ s⁻¹ |  |  |  | 
B9 | 0.053 nM | 0.000101 s⁻¹ | 1.91e+06 M⁻¹ s⁻¹ |  |  |  | 
B10 | 0.0456 nM | 0.000129 s⁻¹ | 2.83e+06 M⁻¹ s⁻¹ |  |  |  | 
B11 | 0.0553 nM | 0.000163 s⁻¹ | 2.94e+06 M⁻¹ s⁻¹ |  |  |  | 
B12 | 0.0444 nM | 9.18e-05 s⁻¹ | 2.07e+06 M⁻¹ s⁻¹ |  |  |  | 
B13 | 0.0671 nM | 9.57e-05 s⁻¹ | 1.43e+06 M⁻¹ s⁻¹ |  |  |  | 
B14 |  |  |  | 0.144 nM | 0.000145 s⁻¹ | 1.01e+06 M⁻¹ s⁻¹ | ~0.2 nM
B15 | 0.106 nM | 0.000117 s⁻¹ | 1.11e+06 M⁻¹ s⁻¹ |  |  |  | 
B16 | 0.0416 nM | 8.64e-05 s⁻¹ | 2.08e+06 M⁻¹ s⁻¹ |  |  |  | 
B17 | 0.0462 nM | 9.58e-05 s⁻¹ | 2.08e+06 M⁻¹ s⁻¹ |  |  |  | 
B18 | 0.0794 nM | 0.000202 s⁻¹ | 2.54e+06 M⁻¹ s⁻¹ |  |  |  | 
B19 | 0.0606 nM | 9.38e-05 s⁻¹ | 1.55e+06 M⁻¹ s⁻¹ |  |  |  | 
B20 | 0.0918 nM | 0.000123 s⁻¹ | 1.34e+06 M⁻¹ s⁻¹ |  |  |  | 
B21 |  |  |  | 0.101 nM | 0.000298 s⁻¹ | 2.95e+06 M⁻¹ s⁻¹ | ~0.2 nM
B22 | 0.0962 nM | 0.000115 s⁻¹ | 1.19e+06 M⁻¹ s⁻¹ |  |  |  | 
B23 | 26.4 nM | 0.0012 s⁻¹ | 45500 M⁻¹ s⁻¹ |  |  |  | 
